Laboratory results published in US20110086026A1 (ROCHE PALO ALTO, published 2011).
Residue numbers refer to the chain shown, from its start.

T1: Cynomolgus IL-13Rα1 expressed in transfected Ba/F3 cells (Cynomolgus, UniProt A0A7N9D0M5 20-425)
T1 construct: Stably transfected murine Ba/F3 cells
T1 sequence: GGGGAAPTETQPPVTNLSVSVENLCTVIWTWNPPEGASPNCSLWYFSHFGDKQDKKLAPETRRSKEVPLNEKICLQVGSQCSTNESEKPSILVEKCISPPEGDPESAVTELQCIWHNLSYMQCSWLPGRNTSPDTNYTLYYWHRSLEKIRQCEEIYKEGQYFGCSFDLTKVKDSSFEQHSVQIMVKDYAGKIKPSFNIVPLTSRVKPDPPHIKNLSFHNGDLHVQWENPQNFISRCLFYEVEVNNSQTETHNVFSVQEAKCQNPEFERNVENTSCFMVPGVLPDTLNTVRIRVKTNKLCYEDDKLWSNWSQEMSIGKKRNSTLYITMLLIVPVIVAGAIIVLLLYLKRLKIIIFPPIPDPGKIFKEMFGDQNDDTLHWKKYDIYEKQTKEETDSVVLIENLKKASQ

T2: human IL-13Rα1 (human, UniProt P78552 22-427)
T2 construct: whole, on cells; also called IL-13Ralpha1; IL-13Rα1 on CHO cells expressing human IL-13Rα1 and human IL-4Rα
T2 sequence (looked up): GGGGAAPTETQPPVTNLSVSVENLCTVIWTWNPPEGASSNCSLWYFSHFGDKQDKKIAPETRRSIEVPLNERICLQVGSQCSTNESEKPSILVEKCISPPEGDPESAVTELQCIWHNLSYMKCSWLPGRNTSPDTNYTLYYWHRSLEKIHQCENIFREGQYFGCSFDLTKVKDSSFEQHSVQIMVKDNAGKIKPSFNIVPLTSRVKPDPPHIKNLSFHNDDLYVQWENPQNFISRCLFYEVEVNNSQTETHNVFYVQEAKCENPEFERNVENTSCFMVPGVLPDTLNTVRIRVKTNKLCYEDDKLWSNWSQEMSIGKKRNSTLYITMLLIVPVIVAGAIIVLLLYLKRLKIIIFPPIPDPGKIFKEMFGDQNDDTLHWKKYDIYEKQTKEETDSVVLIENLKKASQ

T3: extracellular domain of IL-13Rα1 (R&D Systems, UK) (human, UniProt P78552 22-343)
T3 construct: extracellular domain; Bought; also called recombinant human IL-13Rα1 polypeptide; immobilized extracellular domains of human IL-13Rα1
T3 sequence (looked up): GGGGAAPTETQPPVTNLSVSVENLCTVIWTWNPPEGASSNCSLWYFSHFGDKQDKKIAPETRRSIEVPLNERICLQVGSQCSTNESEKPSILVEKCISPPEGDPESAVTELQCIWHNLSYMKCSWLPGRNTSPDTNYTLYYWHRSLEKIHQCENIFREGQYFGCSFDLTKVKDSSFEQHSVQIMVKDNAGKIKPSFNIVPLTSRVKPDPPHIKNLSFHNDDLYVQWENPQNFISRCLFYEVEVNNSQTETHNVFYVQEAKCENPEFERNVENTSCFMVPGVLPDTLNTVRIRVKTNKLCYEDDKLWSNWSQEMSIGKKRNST

B1: HuMab LC5002-005 (antibody, V domains shown)
VH: EVQVLDSGGGLVQPGGSLRLSCTASGFTFRLYTMSWVRQTPGRGLEWVSGISGSGLSTYFADSVKGRFTISRDNSKNTVYLQMNSLRAEDTAVYYCAKEGDWIYFDSWGQGTLVIVSS
VL: DIQMTQSPSSLSASVGDRVTITCRASQGISSWLAWYQQKPEKAPKSLIYAASSLQSGVPSRFSGSGSGTDFTLTISSLQPEDFATYYCQQYNSHPPTFGQGTKLEIK
notes: Only the variable domains are tied to this antibody; also called hu-MAB<h-IL-13Ralpha>LC.5002-005 (DSM ACC2711)
B2: HuMab LC5002-002 (antibody, human IgG1, V domains shown)
VH: EVQLLESGGGLVQPGGSLRLSCAASGFTFNIYAMNWVRQAPGKGLEWVSVISGRGITTYYADSVKGRFTISRDNSKNTLYLQMNSLRADDTAVYYCAKGSSSWTDFDYWGQGTLVTVSS
VL: B1 VL with S31R, L33V, H94Y, P96W, L104V
notes: Human IgG1 kappa from a HuMab mouse hybridoma; Only the variable domains are tied to this antibody; also called hu-MAB<h-IL-13R alpha>LC.5002-002 (DSM ACC2709)
B3: HuMab LC5002-003 (antibody, V domains shown)
VH: B2 VH with G10D, V12I, N84D, D89E, S102Y
VL: B1 VL with H94Y, P96W, L104V
notes: Human IgG1 kappa from a HuMab mouse hybridoma; Only the variable domains are tied to this antibody; also called LC50002-003; hu-MAB<h-IL-13Ralpha>LC.5002-003 (DSM ACC2710)
B4: HuMab LC5002-007 (antibody, human IgG1, V domains shown)
VH: QVQLVQSGAEVKKPGSSVKVSCKVSGGTFSSYAFSWVRQAPGQGLEWMGRIIPILGRTNYAQKFQGRVTITADKSTSTAYMEVSSLRSEDTAVYYCAREGETLDYFYYGMDVWGQGTTVTVSS
VL: EIVLTQSPGTLSLSPGERATLSCRASQSVSSSYLAWYQQKPGQAPRLLIYGASSRAIGIPDRFSGSGSGTDFTLTISRLEPEDFAVYYCQHYGSSLTFGGGTKVEIK
notes: Human IgG1 kappa from a HuMab mouse hybridoma; Only the variable domains are tied to this antibody; also called hu-MAB<h-IL-13R alpha>LC.5002-007 (DSM ACC2712)

Target: T1, Cynomolgus IL-13Rα1 expressed in …
Test: FACS on Ba/F3 cells transfected with Cynomolgus IL-13Rα1, 10 µg/ml
Procedure: (§1) The gene coding for IL-13Rα1 was isolated by RT-PCR from Cynomolgus tissue and transfected into in the murine cell line Ba/F3. In order to test whether the HuMabs crossreact with Cynomolgus IL-13Rα1, the stably transfected Ba/F3 cells as well as the parental Ba/F3 cells were incubated with 10 μg/ml of HuMab and control antibodies. As positive control, a polyclonal goat-anti hIL-13Rα1 (R&D Systems) was used. Negative controls included were: a human IgG1 myeloma protein (Nordic) and normal goat serum. Bound antibodies were detected by FACS analysis using an antibody directed against human IgG conjugated with FITC to detect HuMabs and an antibody directed against goat IgG conjugated with FITC to detect goat antibodies. Mean fluorescence intensities (MFI) were compared for the individual antibodies tested on the transfected Ba/F3 line versus the parental line.
(§2) All HuMabs of the invention were able to bind to Cynomolgus IL-13Rα1 expressed in transfected Ba/F3 cells. As expected from the close homology between human and Cynomolgus IL-13Rα1, the polyclonal AF152 antibody also bound to the Cynomolgus IL-13Rα1.

| MFI Ba/F3_Cyno_IL-13Rα1 [MFI] | Binder |
| --- | --- |
| 102 | B1 |
| 83.7 | B2 |
| 82.4 | B3 |
| 19 | B4 |

Target: T1, Cynomolgus IL-13Rα1 expressed in …
Test: FACS, transfected against parental Ba/F3 cells, 10 µg/ml
Procedure: as §1, §2

| Fold Increase in MFI in the presence of Cyno_IL-13Rα1 | Binder |
| --- | --- |
| 86.7 | B1 |
| 79.8 | B2 |
| 79 | B3 |
| 14.9 | B4 |

Target: T2, human IL-13Rα1
Test: radioligand competition: 125I-IL-13 (0.1 nM) binding to CHO cells expressing human IL-13Rα1 and IL-4Rα
Procedure: ¹²⁵I-IL-13 binding assay was performed using CHO cells expressing human IL-13Rα1 and human IL-4Rα in binding buffer (25 mM HEPES, 150 mM NaCl, 1 mM CaCl₂, 5 mM MgCl₂, and 0.5% bovine serum albumin, adjusted to pH 7.2). 1×10⁵ cells per well were mixed with the antibodies and preincubated for 15 minutes to 1 hour. 0.1 nM ¹²⁵I-IL-13 was added, and the mix was incubated at 4° C. for 4 hours. The concentration of ¹²⁵I-IL-13 used in the assay was determined from saturation binding analysis, competition analysis and determination of input ¹²⁵I-IL-13 to reach equilibrium binding with the cell line. Samples were harvested onto a GF/C filter plate pretreated with 1% PEI/0.5% BSA and counted on Packard TopCount Scintillation counter. Data analysis was performed in PRISM using nonlinear regression curve fit (GraphPad Software, San Diego, Calif.).

| IC50 (read off the curve) [nM] | Binder |
| --- | --- |
| ~0.1 | B1 |
| ~0.1 | B2 |
| ~0.2 | B3 |

Target: T3, extracellular domain of IL-13Rα1 (R&D …)
Test: ELISA, immobilized extracellular domain of human IL-13Rα1, detection with anti-human kappa-POD, OD 405nm-492nm
Procedure: To determine the ability of the antibodies of the invention to bind to recombinant IL-13Rα1, the extracellular domain of IL-13Rα1 (R&D Systems, UK) was dissolved in PBS (1 μg/ml) and allowed to adsorb to microtiter plates (NUNC Maxisorb) by incubation over night at 4° C. After washing the plates with washing buffer (WB=0.9% NaCl; 0.1% Tween® 20) unspecific binding sites were blocked by addition of 100 μl incubation buffer (IB=PBS with 1% crotein C and 0.1% Tween® 20) and incubation for 30 min at room-temperature (RT). Then, serially diluted HuMab and control antibodies (100 μl/well; dilutions in IB) were added and incubated for 1 hour at RT. The plates were again washed, and bound human antibodies were detected by incubation with peroxidase-conjugated rabbit anti-human kappa (DAKO, Denmark) in a final dilution of 1:500 in IB. Polyclonal goat anti-hIL-13Rα1 antibodies were detected with peroxidase-conjugated polyclonal donkey anti-goat IgG (Santa Cruz; dilution 1:1000 in IB). After incubation for 1 h at RT and a subsequent washing step, the plates were developed with ready-to-use ABTS® solution (Roche Diagnostics GmbH) at RT in the dark. Absorbance was measured at 405 nm after absorbance of the highest concentration reached a sufficient OD.

| EC50 (read off the curve) [nM] | Binder |
| --- | --- |
| ~1 | B1 |
| ~1 | B2 |
| 1 to 2 | B3 |
| ~0.8 | B4 |
